Source: PMC3900722

Target: hemocyanin from Fissurella latimarginata (Fissurella latimarginata)
Experiment: negative-stain transmission electron microscopy; purified FLH 100 µg/ml on parlodion-coated copper grid, stained with 1-2% aqueous uranyl acetate, 80 kV; quaternary structure of the assembled protein

stoichiometry N: 20 subunits
Substance: hemocyanin from Fissurella latimarginata (natural protein)
